Measured values as given in PMC4499140 (Nucleic Acids Research, 2015).

How the values were obtained:
[1] = molecular target: Rv1222 G133C (Fe-BABE);E. coli RNAP-σ70 holoenzyme (Mycobacterium tuberculosis …, UniProt L0T905;P0A7Z4;P0A8V2;P0A8T7;P0A800;P00579 1-154;1-329;1-1342;1-1407;2-91;1-613, C70A;C73A;C109G;G133C|); test: Fe-BABE footprinting
[2] = molecular target: Mycobacterium tuberculosis RNA polymerase core (Mycobacterium tuberculosis, UniProt P9WGZ1;P9WGY9;P9WGY7); test: fluorescence polarisation

B1: lacCONS15 promoter DNA (dsDNA)
DNA 1: CACCCCAGGCTTGACACTTTATGCTTCGGCTCGTATAATGTGTGGAATTGTGAGGAGAGGCGGATAACAATTTCACACAGG
DNA 2: CCTGTGTGAAATTGTTATCCGCCTCTCCTCACAATTCCACACATTATACGAGCCGAAGCATAAAGTGTCAAGCCTGGGGTG
binding result [1]: binds

B2: Rv1222ΔC, TMR labelled (domain or fragment)
chain: MADPGSVGHVFRRAFSWLPAQFASQSDAPVGAPRQFRSTEHLSIEAIAAFVDGELRMNAHLRAAHHLSLCAQCAAEVDDQSRARAALRDSHPIRIPSTLLGLLSEIPRCPPEGPSKGSSGGSSQGPPDGAAAGFGDRFADGDGG
modifications: TMR label
Kd [2]: 72 ± 26 nM
